According to US20220143136A1, “USE OF ANNEXINS IN PREVENTING AND TREATING MUSCLE MEMBRANE INJURY” (NORTHWESTERN UNIVERSITY, priority 2018, published 2022):
Substitutions are numbered along the chain they refer to. Names and notes keep the numbering of the source.

B1: annexin A2: annexin A2 with carboxyl-terminal turboGFP or tdTomato tag, expressed from plasmid in myofibers (protein, UniProt P07356 2-339, looked up)
Annexin A2: STVHEILCKLSLEGDHSTPPSAYGSVKPYTNFDAERDALNIETAVKTKGVDEVTIVNILTNRSNVQRQDIAFAYQRRTKKELPSALKSALSGHLETVILGLLKTPAQYDASELKASMKGLGTDEDSLIEIICSRTNQELQEINRVYKEMYKTDLEKDIISDTSGDFRKLMVALAKGRRAEDGSVIDYELIDQDARELYDAGVKRKGTDVPKWISIMTERSVCHLQKVFERYKSYSPYDMLESIKKEVKGDLENAFLNLVQCIQNKPLYFADRLYDSMKGKGTRDKVLIRIMVSRSEVDMLKIRSEFKRKYGKSLYYYIQQDTKGDYQKALLYLCGGDD
modifications: C-terminal turboGFP or tdTomato tag
notes: annexin A2 with carboxyl-terminal turboGFP or tdTomato tag, expressed from plasmid in myofibers
B2: A2D161A: Ca2+-binding mutant of annexin A2 (D161A), plasmid expressed (protein, UniProt P07356 2-339, looked up, variant D161A)
Annexin A2: B1 Annexin A2 with D161A
modifications: GFP tag
B3: annexin A1: annexin A1 with carboxyl-terminal turboGFP or tdTomato tag, expressed from plasmid in myofibers (protein, UniProt P10107 2-346, looked up)
Annexin A1: AMVSEFLKQARFLENQEQEYVQAVKSYKGGPGSAVSPYPSFNVSSDVAALHKAIMVKGVDEATIIDILTKRTNAQRQQIKAAYLQENGKPLDEVLRKALTGHLEEVVLAMLKTPAQFDADELRGAMKGLGTDEDTLIEILTTRSNEQIREINRVYREELKRDLAKDITSDTSGDFRKALLALAKGDRCQDLSVNQDLADTDARALYEAGERRKGTDVNVFTTILTSRSFPHLRRVFQNYGKYSQHDMNKALDLELKGDIEKCLTTIVKCATSTPAFFAEKLYEAMKGAGTRHKALIRIMVSRSEIDMNEIKVFYQKKYGISLCQAILDETKGDYEKILVALCGGN
modifications: C-terminal turboGFP or tdTomato tag
notes: annexin A1 with carboxyl-terminal turboGFP or tdTomato tag, expressed from plasmid in myofibers
B4: annexin A1 D171A: Ca2+-binding mutant of annexin A1 (D171A), plasmid expressed (protein, UniProt P10107 2-346, looked up, variant D171A)
Annexin A1: B3 Annexin A1 with D170A
modifications: GFP tag
B5: A6D149A: annexin A6 D149A mutant, plasmid expressed (protein, UniProt P14824 2-673, looked up, variant D149A)
Annexin A6: AKIAQGAMYRGSVHDFPEFDANQDAEALYTAMKGFGSDKESILELITSRSNKQRQEICQNYKSLYGKDLIEDLKYELTGKFERLIVNLMRPLAYCDAKEIKDAISGVGTDEKCLIEILASRTNEQMHQLVAAYKDAYERDLESDIIGATSGHFQKMLVVLLQGTRENDDVVSEDLVQQDVQDLYEAGELKWGTDEAQFIYILGNRSKQHLRLVFDEYLKTTGKPIEASIRGELSGDFEKLMLAVVKCIRSTPEYFAERLFKAMKGLGTRDNTLIRIMVSRSELDMLDIREIFRTKYEKSLYSMIKNDTSGEYKKALLKLCGGDDDAAGQFFPEAAQVAYQMWELSAVSRVELKGTVCAANDFNPDADAKALRKAMKGIGTDEATIIDIVTHRSNAQRQQIRQTFKSHFGRDLMADLKSEISGDLARLILGLMMPPAHYDAKQLKKAMEGAGTDEKTLIEILATRTNAEIRAINEAYKEDYHKSLEDALSSDTSGHFRRILISLATGNREEGGENRDQAQEDAQVAAEILEIADTPSGDKTSLETRFMTVLCTRSYPHLRRVFQEFIKKTNYDIEHVIKKEMSGDVKDAFVAIVQSVKNKPLFFADKLYKSMKGAGTDEKTLTRVMVSRSEIDLLNIRREFIEKYDKSLHQAIEGDTSGDFMKALLALCGGED
modifications: GFP tag
notes: annexin A6 D149A mutant, plasmid expressed

Columns and labels:
myofibers [1] = assay: Annexin repair cap formation after laser injury at multiple Ca2+ concentrations; format: cell-based, mouse; conditions: for Km1/2 (repair cap area as a function of Ca2+ concentration): Ca2+ 0-2 mM, modified Hill equation; for wildtype annexin A6 cap size with co-expressed mutant annexin A1 or A2: heterotypic co-expression; for repair cap diameter (DMAX) / cap size of the co-expressed wildtype annexin of the same type: wildtype+mutant vs wildtype+wildtype co-electroporation (homotypic)
Description: (§1) Electroporation, myofiber isolation, laser injury, cap and vesicle measurement. Flexor digitorum brevis (FDB) fibers were transfected with endo-free plasmid DNA by in vivo electroporation. Methods were described previously in (Demonbreun and McNally, 2015; Demonbreun et al., 2016b; DiFranco et al., 2009). Z-stack projections were acquired from consecutive acquisitions after the final time-lapse frame, approximately 4 minutes post damage, with a […] step size between slices. Z-stack renderings were constructed in FIJI. Measurement of the cap area and feret diameter were conducted from a single slice near the middle of the z-stack using FIJI imaging tools. Fibers expressing similar levels of tagged or GCaMP5G protein were compared. GCaMP5G Ca^2+ fluorescence was measured from the acquired timelapse images, using a standard rectangular ROI, placed inside the myofiber below the site of damage using FIJI. Fluorescence was expressed as F/F0. External vesicle number and GCaMP5G area were measured from endpoint z-stacks and max projection images using FIJI. Vesicles were considered external if they were found outside the sarcolemma assessed in brightfield and fluorescent channels. All measurements were acquired from myofibers isolated from at least n≥3 mice, n≥3 myofibers per mouse.
Calcium kinetics. FDB muscle was electroporated and isolated as described above. Myofibers were damaged in Ringers solution with Ca^2+ concentrations of 2 mM, 1 mM, 0.5 mM, 0.25 mM, 0.175 mM, 0.1 mM, 0.050 mM, and 0 mM. EDTA was added as a Ca^2+ chelating agent in only in the 0 mM Ca^2+ Ringers. Myofibers were isolated directly into 2 mM, 1 mM and 0.5 mM Ringers for those experiments respectively. For experiments using less than 0.5 mM Ca^2+ myofibers were isolated in 0.5 mM Ca^2+ Ringers and then diluted with 0 mM EDTA-free Ca^2+ Ringers. For 0 mM experiments, myofibers were isolated in 0.5 mM Ca^2+ Ringers and then replaced with 0 mM Ca^2++EDTA Ringers just prior to imaging. Co-electroporation of wildtype annexin+wildtype annexin constructs was performed in one mouse foot, while the contralateral foot was co-electroporated with wildtype annexin+mutant annexin. All measurements were acquired from myofibers isolated from at least n≥2 mice, n≥3 myofibers per mouse at each Ca^2+ concentration. Area-Ca^2+ curves were fitted with a Hill Curve at Ca^2+ concentrations ranging from 0-2 mM. Kinetic parameters were calculated using Prism Graphpad.
as §1, with “(Demonbreun A R, Quattrocelli M, Barefield D Y, Allen M V, Swanson K E,” for “(Demonbreun”, “McNally E M. An actin-dependent annexin complex mediates plasma membrane repair in muscle. The Journal of cell biology. 2016; 213(6):705-18; Demonbreun A R, and McNally E M. DNA Electroporation, Isolation and Imaging of Myofibers. Journal of visualized experiments: JoVE.” for “McNally,”, “106(106):e53551;” for “Demonbreun et al., 2016b;”, “M, Quinonez M, Capote J, and Vergara J. DNA transfection of mammalian skeletal muscles using in vivo electroporation. Journal of visualized experiments: JoVE. 2009; 32(32)).” for “et al., 2009).”, “Vesicles were considered external if they were found outside the sarcolemma assessed in brightfield and fluorescent channels. All measurements were acquired from myofibers isolated from at least n≥3 mice, n≥3 myofibers per mouse.” left out

myofibers [2] = assay: Bleb formation and intracellular Ca2+ fluorescence (GCaMP5G, Fluo-4) after laser injury with annexin overexpression; format: cell-based, mouse; conditions: for internal GCaMP5G Ca2+ fluorescence at the site of injury: vs GCaMP5G alone
Description: as §1
as §1, with “(Demonbreun A R, Quattrocelli M, Barefield D Y, Allen M V, Swanson K E,” for “(Demonbreun”, “McNally E M. An actin-dependent annexin complex mediates plasma membrane repair in muscle. The Journal of cell biology. 2016; 213(6):705-18; Demonbreun A R, and McNally E M. DNA Electroporation, Isolation and Imaging of Myofibers. Journal of visualized experiments: JoVE.” for “McNally,”, “106(106):e53551;” for “Demonbreun et al., 2016b;”, “M, Quinonez M, Capote J, and Vergara J. DNA transfection of mammalian skeletal muscles using in vivo electroporation. Journal of visualized experiments: JoVE. 2009; 32(32)).” for “et al., 2009).”
Calcium and pH indicator dye measurements. Wildtype FDBs were isolated and plated in Ringers on Matek glass-bottom dishes as described above. Twenty minutes prior to imaging, myofibers were loaded with Fluo-4 AM at 37° C. (F10489, ThermoFisher Scientific, Waltham, Mass.) or pHrodo AM (P35373, ThermoFisher Scientific, Waltham, Mass.) as described in the instruction manual. Fibers were rinsed once with Ringers then subsequently damaged and imaged on the Nikon A1R GaSP, as described above. Fluorescence intensity was measured using FIJI (NIH). phRodo change in fluorescence intensity was calculated as F/F0. Data was acquired from n=3 mice per experiment from multiple myofibers per mouse. […]

[3] = fluorescently tagged annexin expressed in myofibers

Row | Molecule | Km1/2 (repair cap area as a function of Ca2+ concentration) (myofibers [1]; [3]) [mM] | internal GCaMP5G Ca2+ fluorescence at the site of injury (myofibers [2]; over 240 seconds of imaging) | wildtype annexin A6 cap size with co-expressed mutant annexin A1 or A2 (myofibers [1]) | repair cap diameter (DMAX) / cap size of the co-expressed wildtype annexin of the same type (myofibers [1]) | further results
1 | B1 | 0.067 | significant reduction |  |  | lowest Ca2+ concentration at which a discernable repair cap formed (myofibers [1]; [3]): 0.05 mM; number of extracellular (GCaMP5G-positive) blebs at the membrane lesion (myofibers [2]; annexin overexpression vs annexin A1 overexpression or GCaMP5G alone): significantly more blebs; internal GCaMP5G Ca2+ fluorescence at the site of injury (myofibers [2]; first 20 seconds post injury): significant reduction
2 | B2 |  |  | minimal effect | significantly reduced | 
3 | B3 | 0.17 | significant reduction |  |  | 
4 | B4 |  |  | minimal effect | significantly reduced | 
5 | B5 |  |  |  | little effect | 
